Reference: article PMC12822440, “An Aptamer‐Based EXACT Anticoagulant as a Sustainable, Animal‐Free Alternative to Unfractionated Heparin”

What was measured:
[1] = biological target: T1, thrombin (alpha-thrombin) (UniProt P00734;P00734 315-363;364-622); test: filter binding; Nitrocellulose filter binding, 32P 5'-labelled aptamer (500 CPM/uL), selection buffer (composition not given), 5 min at room temperature, n = 2
[2] = biological target: T1, thrombin (alpha-thrombin); test: filter binding; dabigatran covalently attached to the aptamer, occupies the active site; Nitrocellulose filter binding, 32P 5'-labelled aptamer (500 CPM/uL), selection buffer (composition not given), 5 min at room temperature, n = 2
prothrombin = prothrombin (UniProt P00734 44-622); test: filter binding; dabigatran covalently attached to the aptamer; Nitrocellulose filter binding, 32P 5'-labelled aptamer (500 CPM/uL), selection buffer (composition not given), 5 min at room temperature, n = 2; conditions: protein: commercial; label: 5'-32P

| Binder | Kd [1] [nM] | Kd [2] [nM] | Kd (prothrombin) [nM] |
| --- | --- | --- | --- |
| GGTTGGTGTGGTTGG (structured_DNA) [HD1] | 110 | – | – |
| GGTTGGTGTGGTTGGAAAAAAAAAAAA (structured_DNA, 3'-dabigatran conjugate (DAB) through 12-nt dA linker) [HD1-12A-DAB] | – | 0.0131 | 296 |
